Measured values reported in publication PMC3483176, “Structural Insight into the Clostridium difficile Ethanolamine Utilisation Microcompartment” (PLoS ONE, 2012).

B1: CD1908, C-terminal His6 tagged (CD1908-His) (natural protein, Clostridium difficile 630, UniProt Q187M0 1-116, looked up)
chain: MTEESKQRVIQEYVPGKQVTLAHIIANPNEDIYKKLGLVLDKKDAIGILTITPSEASIIAADVATKASNVSLGFIDRFSGSVVISGDVSSVESALNDVLEVLGNMLNFSSTKITRT
notes: CD1908, EutS homologue, BMC shell protein of the eut operon of Clostridium difficile 630; full length open reading frame amplified from genomic DNA (genome positions 2209853-2210203); Cloned between NcoI and XhoI of pET28b; also called EutS; C. difficile EutS homologue; source: E. coli B834 (DE3), purified (HisTrap, Superdex S200 size exclusion); not shown: His6, C-terminal, kept
B2: CD1918, C-terminal His6 tagged (CD1918-His) (natural protein)
chain: MASANALGMIETKGLVGAIEAADAMVKAANVQLVGKEQVGGGLVTVMVRGDVGAVKAATDAGAAAAERVGELISVHVIPRPHFEVDAILPKVSAE
notes: CD1918, EutM homologue, BMC shell protein of the eut operon of Clostridium difficile 630; full length open reading frame amplified from genomic DNA (genome positions 2219567-2219854); Cloned between NcoI and XhoI of pET28b; the XhoI site probably adds Leu-Glu before the His6 tag (surmised); also called EutM; C. difficile EutM homologue; source: E. coli B834 (DE3), purified (HisTrap, Superdex S200 …)

Legend:
[1] = biological target: the molecule itself; assay: crystal structure; CD1908-His at 10 mg/ml in Milli-Q H2O, sitting drop, 24% (w/v) PEG 1500, 20% (v/v) glycerol; space group H 3; two molecules in the asymmetric unit, hexamer by the crystallographic 3-fold axis; oligomerisation states calculated with PISA
[2] = biological target: the molecule itself; assay: crystal structure; CD1918-His at 10 mg/ml in Milli-Q H2O, sitting drop, 200 mM Li2SO4, 100 mM phosphate/citrate buffer pH 4.2, 20% (w/v) PEG 1000; space group I 1 2 1; three chains in the asymmetric unit, hexamer by a crystallographic 2-fold axis; oligomerisation states calculated with PISA

Row | Protein | stoichiometry N [1] | stoichiometry N [2]
1 | B1 | 6 | –
2 | B2 | – | 6
